According to article PMC2944003:

Target: human complement receptor 3 (CR3) on CR3-transfected CHO cells (CHO/CR3) (human), P11215
Assay: flow cytometry on cells
Details: remark: other sources report otherwise

B1: Factor H (fH), purified human, P08603 19-1231 (natural protein)
chain: EDCNELPPRRNTEILTGSWSDQTYPEGTQAIYKCRPGYRSLGNVIMVCRKGEWVALNPLRKCQKRPCGHPGDTPFGTFTLTGGNVFEYGVKAVYTCNEGYQLLGEINYRECDTDGWTNDIPICEVVKCLPVTAPENGKIVSSAMEPDREYHFGQAVRFVCNSGYKIEGDEEMHCSDDGFWSKEKPKCVEISCKSPDVINGSPISQKIIYKENERFQYKCNMGYEYSERGDAVCTESGWRPLPSCEEKSCDNPYIPNGDYSPLRIKHRTGDEITYQCRNGFYPATRGNTAKCTSTGWIPAPRCTLKPCDYPDIKHGGLYHENMRRPYFPVAVGKYYSYYCDEHFETPSGSYWDHIHCTQDGWSPAVPCLRKCYFPYLENGYNQNYGRKFVQGKSIDVACHPGYALPKAQTTVTCMENGWSPTPRCIRVKTCSKSSIDIENGFISESQYTYALKEKAKYQCKLGYVTADGETSGSITCGKDGWSAQPTCIKSCDIPVFMNARTKNDFTWFKLNDTLDYECHDGYESNTGSTTGSIVCGYNGWSDLPICYERECELPKIDVHLVPDRKKDQYKVGEVLKFSCKPGFTIVGPNSVQCYHFGLSPDLPICKEQVQSCGPPPELLNGNVKEKTKEEYGHSEVVEYYCNPRFLMKGPNKIQCVDGEWTTLPVCIVEESTCGDIPELEHGWAQLSSPPYYYGDSVEFNCSESFTMIGHRSITCIHGVWTQLPQCVAIDKLKKCKSSNLIILEEHLKNKKEFDHNSNIRYRCRGKEGWIHTVCINGRWDPEVNCSMAQIQLCPPPPQIPNSHNMTTTLNYRDGEKVSVLCQENYLIQEGEEITCKDGRWQSIPLCVEKIPCSQPPQIEHGTINSSRSSQESYAHGTKLSYTCEGGFRISEENETTCYMGKWSSPPQCEGLPCKSPPEISHGVVAHMSDSYQYGEEVTYKCFEGFGIDGPAIAKCLGEKWSHPPSCIKTDCLSLPSFENAIPMGEKKDVYKAGEQVTYTCATYYKMDGASNVTCINSRWTGRPTCRDTSCVNPPTVQNAYIVSRQMSKYPSGERVRYQCRSPYEMFGDEEVMCLNGNWTEPPQCKDSTGKCGPPPPIDNGDITSFPLSVYAPASSVEYQCQNLYQLEGNKRITCRNGQWSEPPKCLHPCVISREIMENYNIALRWTAKQKLYSRTGESVEFVCKRGYRLSSRSHTLRTTCWDGKLEYPTCAKR
fold increase in binding to CHO/CR3 cells compared to CHO/NEO cells: 4 fold
